# Experimental data: patent publication EP4786492A1 (Simcere Zaiming Pharmaceutical Co., Ltd., dated 2026)
# Changes are numbered by the printed parent chain.
# T1: human DLL3 endogenously expressed on SHP77 and NCI-H82 cells (human, UniProt Q9NYJ7 27-618)
# T1 construct: whole, on cells; cells endogenously expressing DLL3; also called SHP77 cells; SHP-77 cells
# T1 sequence (looked up): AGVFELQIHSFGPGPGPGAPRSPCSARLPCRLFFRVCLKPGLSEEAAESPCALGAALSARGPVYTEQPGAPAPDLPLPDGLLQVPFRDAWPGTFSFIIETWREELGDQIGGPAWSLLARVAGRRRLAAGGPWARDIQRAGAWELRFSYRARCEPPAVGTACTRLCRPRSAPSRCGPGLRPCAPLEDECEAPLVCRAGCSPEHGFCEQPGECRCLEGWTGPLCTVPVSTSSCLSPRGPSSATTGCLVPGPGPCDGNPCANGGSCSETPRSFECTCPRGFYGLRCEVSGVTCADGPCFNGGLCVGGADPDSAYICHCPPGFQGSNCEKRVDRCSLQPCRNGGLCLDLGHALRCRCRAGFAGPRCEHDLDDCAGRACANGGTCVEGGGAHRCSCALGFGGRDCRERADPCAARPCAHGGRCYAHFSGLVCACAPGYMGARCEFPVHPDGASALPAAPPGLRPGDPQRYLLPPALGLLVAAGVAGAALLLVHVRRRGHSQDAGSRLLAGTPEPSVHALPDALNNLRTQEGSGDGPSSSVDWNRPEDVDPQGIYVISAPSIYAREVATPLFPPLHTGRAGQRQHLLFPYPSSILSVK
# T2: mouse DLL3 on CHO K1-mDLL3 cells (mouse, UniProt O88516 33-490)
# T2 construct: also called mouse DLL3 recombinant cell line
# T2 sequence: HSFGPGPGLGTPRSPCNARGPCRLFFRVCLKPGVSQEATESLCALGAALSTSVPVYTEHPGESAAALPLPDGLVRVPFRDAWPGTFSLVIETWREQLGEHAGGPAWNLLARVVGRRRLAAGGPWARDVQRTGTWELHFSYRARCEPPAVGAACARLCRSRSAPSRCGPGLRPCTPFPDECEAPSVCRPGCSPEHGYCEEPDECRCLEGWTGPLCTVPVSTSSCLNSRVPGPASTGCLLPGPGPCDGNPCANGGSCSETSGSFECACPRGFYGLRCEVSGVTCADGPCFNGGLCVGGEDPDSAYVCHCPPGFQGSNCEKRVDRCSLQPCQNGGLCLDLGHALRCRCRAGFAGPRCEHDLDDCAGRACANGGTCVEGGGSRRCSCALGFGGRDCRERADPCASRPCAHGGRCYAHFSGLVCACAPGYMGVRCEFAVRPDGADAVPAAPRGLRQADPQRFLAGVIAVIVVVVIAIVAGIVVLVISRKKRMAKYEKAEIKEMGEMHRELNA
# T3: monkey DLL3 on CHO K1-cyno DLL3 cells (cynomolgus monkey)
# T3 construct: also called monkey DLL3 recombinant cell line
# T3 chain: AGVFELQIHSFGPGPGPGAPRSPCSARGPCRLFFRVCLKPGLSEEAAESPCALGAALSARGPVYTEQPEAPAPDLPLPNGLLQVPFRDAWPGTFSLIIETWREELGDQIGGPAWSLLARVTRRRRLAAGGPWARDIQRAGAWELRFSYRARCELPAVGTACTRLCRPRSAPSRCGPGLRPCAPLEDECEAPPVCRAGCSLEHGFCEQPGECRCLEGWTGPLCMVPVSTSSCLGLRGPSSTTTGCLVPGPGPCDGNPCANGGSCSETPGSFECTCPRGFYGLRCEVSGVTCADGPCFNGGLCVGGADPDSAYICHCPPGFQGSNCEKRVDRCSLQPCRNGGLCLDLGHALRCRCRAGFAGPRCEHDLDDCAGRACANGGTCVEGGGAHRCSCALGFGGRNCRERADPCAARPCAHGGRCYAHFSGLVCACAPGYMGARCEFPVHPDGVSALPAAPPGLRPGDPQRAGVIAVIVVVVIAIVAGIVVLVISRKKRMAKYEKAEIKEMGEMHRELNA
# T4: human DLL3-his protein (human, UniProt Q9NYJ7 27-492)
# T4 construct: also called human DLL3 protein; DLL3 antigen protein; not shown: His tag
# T4 sequence: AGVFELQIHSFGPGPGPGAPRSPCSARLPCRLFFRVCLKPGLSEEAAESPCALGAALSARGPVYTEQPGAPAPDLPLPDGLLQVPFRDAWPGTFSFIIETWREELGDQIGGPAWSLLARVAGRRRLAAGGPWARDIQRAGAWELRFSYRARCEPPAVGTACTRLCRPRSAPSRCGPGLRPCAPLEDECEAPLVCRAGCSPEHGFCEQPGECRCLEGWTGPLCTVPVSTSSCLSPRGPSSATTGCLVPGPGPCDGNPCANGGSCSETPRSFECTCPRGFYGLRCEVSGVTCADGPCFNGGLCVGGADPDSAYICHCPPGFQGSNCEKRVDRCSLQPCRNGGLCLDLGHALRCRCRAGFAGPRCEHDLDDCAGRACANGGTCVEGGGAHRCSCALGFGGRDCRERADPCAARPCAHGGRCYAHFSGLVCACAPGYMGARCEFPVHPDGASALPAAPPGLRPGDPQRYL
# T5: human DLL3 on CHO-K1 hDLL3 cells (human, UniProt Q9NYJ7 27-492)
# T5 construct: also called human DLL3 recombinant cell line
# T5 sequence: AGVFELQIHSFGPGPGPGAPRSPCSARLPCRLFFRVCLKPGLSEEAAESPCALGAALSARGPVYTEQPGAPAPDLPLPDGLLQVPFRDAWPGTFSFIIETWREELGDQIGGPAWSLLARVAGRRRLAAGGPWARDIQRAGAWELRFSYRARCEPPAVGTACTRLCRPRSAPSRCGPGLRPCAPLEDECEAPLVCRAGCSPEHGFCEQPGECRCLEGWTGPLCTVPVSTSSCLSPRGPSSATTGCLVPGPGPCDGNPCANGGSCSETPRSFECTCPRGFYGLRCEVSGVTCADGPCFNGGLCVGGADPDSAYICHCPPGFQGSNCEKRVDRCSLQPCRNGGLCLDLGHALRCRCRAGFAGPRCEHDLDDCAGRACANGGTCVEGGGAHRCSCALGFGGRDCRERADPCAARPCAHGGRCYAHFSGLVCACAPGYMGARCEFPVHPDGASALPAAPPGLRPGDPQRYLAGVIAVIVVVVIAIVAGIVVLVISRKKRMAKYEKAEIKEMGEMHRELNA
# B1: Hab008L1H2a-hFc (Fc fusion)
# scFv (part 1 of 2): DIQMTQSPSSLSASVGDRVTITCKASQNVGTAVAWYQQKPGKSPKLLIFSASIRYTGVPSRFSGSGSGTDFTLTISSLQPEDFATYYCQQYSSSPYTFGGGTKVEIK
# scFv (part 2 of 2): EVQLVQSGAEVKKPGASVKVSCKASGYTFTDYYMNWVRQAPGQRLEWMGIINPYNSGTSYNQKFRGRVTLTVDKSASTAYMELSSLRSEDTAVYYCSRYDYDYDVEGAMDYWGQGTTVTVSS
# notes: humanized mab008, VL-linker-VH-human IgG1 Fc; also called Hab008 humanized molecule; not shown: linker; human IgG1 Fc fragment
# B2: Hab008L3H2a-hFc (Fc fusion)
# scFv (part 1 of 2): DIVMTQSPDSLAVSLGERATINCKASQNVGTAVAWYQQKPGQSPKLLIFSASIRYTGVPDRFSGSGSGTDFTLTISSLQAEDVAVYYCQQYSSSPYTFGGGTKVEIK
# scFv (part 2 of 2): B1 scFv (part 2 of 2)
# notes: as for B1
# B3: Hab008L1H5-hFc (Fc fusion)
# scFv (part 1 of 2): B1 scFv (part 1 of 2)
# scFv (part 2 of 2): B1 scFv (part 2 of 2) with Q39R, S56G, L70I
# notes: as for B1
# B4: Hab008L3H5-hFc (Fc fusion)
# scFv (part 1 of 2): B2 scFv (part 1 of 2)
# scFv (part 2 of 2): B1 scFv (part 2 of 2) with Q39R, S56G, L70I
# notes: as for B1
# B5: Hab015VL4VH1a-hFc (Fc fusion)
# scFv (part 1 of 2): NIVLTQSPATLSLSPGERATLSCKASENVGTYVSWFQQKPGQSPRLLIYGASNRYTGIPARFSGSGSGTDFTLTISSLEPEDFAVYYCGQFYSFPSTFGGGTKVEIK
# scFv (part 2 of 2): EVQLVESGGGLVKPGGSLRLSCAASGITFSNFWMNWVRQAPGKGLEWVGQIRLKSDDYATHYAESVKGRFTISREDSKNTVYLQMNSLKTEDTAVYYCTTGYYFDYWGQGTTVTVSS
# notes: humanized mab015, VL-linker-VH-human IgG1 Fc; also called Hab015L4H1a; not shown: linker; human IgG1 Fc fragment
# B6: Hab015VL5VH1a-hFc (Fc fusion)
# scFv (part 1 of 2): NIQMTQSPSSLSASVGDRVTITCKASENVGTYVSWYQQKPGKSPKLLIYGASNRYTGVPSRFSGSGSGTDFTLTISSLQPEDFATYYCGQFYSFPSTFGGGTKVEIK
# scFv (part 2 of 2): B5 scFv (part 2 of 2)
# notes: humanized mab015, VL-linker-VH-human IgG1 Fc; also called Hab015L5H1a; not shown: linker; human IgG1 Fc fragment
# B7: Hab015VL5VH5a-hFc (Fc fusion)
# scFv (part 1 of 2): B6 scFv (part 1 of 2)
# scFv (part 2 of 2): B5 scFv (part 2 of 2) with A23V
# notes: humanized mab015, VL-linker-VH-human IgG1 Fc; also called Hab015L5H5a; not shown: linker; human IgG1 Fc fragment
# B8: Hab015VL4VH6a-hFc (Fc fusion)
# scFv (part 1 of 2): B5 scFv (part 1 of 2)
# scFv (part 2 of 2): B5 scFv (part 2 of 2) with G42E
# notes: humanized mab015, VL-linker-VH-human IgG1 Fc; also called Hab015L4H6a; not shown: linker; human IgG1 Fc fragment
# B9: Hab015VL4VH1b-hFc (Fc fusion)
# scFv (part 1 of 2): B5 scFv (part 1 of 2)
# scFv (part 2 of 2): B5 scFv (part 2 of 2) with D56E
# notes: humanized mab015, VL-linker-VH-human IgG1 Fc; also called Hab015L4H1b; not shown: linker; human IgG1 Fc fragment
# B10: Hab015VL5VH6a-hFc (Fc fusion)
# scFv (part 1 of 2): B6 scFv (part 1 of 2)
# scFv (part 2 of 2): B5 scFv (part 2 of 2) with G42E
# notes: humanized mab015, VL-linker-VH-human IgG1 Fc; also called Hab015L5H6a; not shown: linker; human IgG1 Fc fragment
# B11: Hab015VL4VH5a-hFc (Fc fusion)
# scFv (part 1 of 2): B5 scFv (part 1 of 2)
# scFv (part 2 of 2): B5 scFv (part 2 of 2) with A23V
# notes: humanized mab015, VL-linker-VH-human IgG1 Fc; also called Hab015L4H5a; not shown: linker; human IgG1 Fc fragment
# B12: Hab014VL3VH1-hFc (Fc fusion)
# scFv (part 1 of 2): DIVMTQSPDSLAVSLGERATINCKASEDIYNRLAWYQQKPGQTPKLLISGATSLETGVPDRFSGSGSGKDFTLTISSLQAEDVAVYYCQQYWSLPWTFGGGTKVEIK
# scFv (part 2 of 2): EVQLVQSGAEVKKPGASVKVSCKASGYTFTDYYMNWVRQAPGQRLEWMGDINPNHGDTGYNQKFTGRVTITVDKSASTAYMELSSLRSEDTAVYYCARNFFYYGTTYGWYFDVWGQGTTVTVSS
# notes: humanized mab014, VL-linker-VH-human IgG1 Fc; not shown: linker; human IgG1 Fc fragment
# Biological target: T1, human DLL3 endogenously expressed on …
# Experiment: FACS, SHP77 and NCI-H82 cells
row,Binder,binding result
1,B1,binds
2,B2,binds
3,B3,binds
4,B4,binds
5,B5,binds
6,B6,binds
7,B7,binds
8,B8,binds
9,B9,binds
10,B10,binds
11,B11,binds
12,B12,binds

# Biological target: T2, mouse DLL3 on CHO K1-mDLL3 cells
# Experiment: FACS, CHO K1-mDLL3 cells
row,Binder,binding result
1,B1,no binding
2,B2,no binding
3,B3,no binding
4,B4,no binding
5,B5,binds
6,B6,binds
7,B7,binds
8,B8,binds
9,B9,binds
10,B10,binds
11,B11,binds
12,B12,binds

# Biological target: T3, monkey DLL3 on CHO K1-cyno DLL3 cells
# Experiment: FACS, CHO K1-cyno DLL3 cells
row,Binder,binding result
1,B1,binds
2,B2,binds
3,B3,binds
4,B4,binds
5,B5,binds
6,B6,binds
7,B7,binds
8,B8,binds
9,B9,binds
10,B10,binds
11,B11,binds
12,B12,binds

# Biological target: T4, human DLL3-his protein
# Experiment: ELISA
row,Binder,binding result
1,B1,binds
2,B2,binds
3,B3,binds
4,B4,binds
5,B5,binds
6,B6,binds
7,B7,binds
8,B8,binds
9,B9,binds
10,B10,binds
11,B11,binds
12,B12,binds

# Biological target: T5, human DLL3 on CHO-K1 hDLL3 cells
# Experiment: FACS, CHO-K1 hDLL3 cells
row,Binder,binding result
1,B1,binds
2,B2,binds
3,B3,binds
4,B4,binds
5,B5,binds
6,B6,binds
7,B7,binds
8,B8,binds
9,B9,binds
10,B10,binds
11,B11,binds
12,B12,binds
